The values below come from patent US20200283482A1, “BICYCLIC PEPTIDE LIGAND PRR-A CONJUGATES AND USES THEREOF” (BicycleRD Limited, priority 2017, published 2020).

Starred links: 1 amine or outer side, 2 acyl side, 3 side chain; linkers in the order of their positions; H or OH if unused. Positions of bridges follow the written chain, without caps; N, C: chain ends. Non-standard residues stand in square brackets, D forms with d. Residues, ends and D or L forms follow the SMILES beside them. *: point of attachment. X1 = CCOCc1nc2c(NC(=O)OCCSSC(C)CCC(=O)*)nc3ccccc3c2n1CC(C)(C)O; 1Nal = N[C@@H](Cc1cccc2ccccc12)C(=O)O; TBMB = c1c(C[*:1])cc(C[*:3])cc1C[*:2]; Tle = CC(C)(C)[C@H](N)C(=O)O; βAla = NCCC(=O)O; Sar = CNCC(=O)O

One series is described as follows: Plasma stability, mouse. It counts as in vitro ADME. The note with it: pH 7.4; mouse plasma, 2 μM, 37° C.; read-out: T1/2 (mouse).
Another series is described as follows: Plasma stability, rat. The class given is in vitro ADME. The note with it: pH 7.4; rat plasma, 2 μM, 37° C.; read-out: T1/2 (rat).
Another series in a line: Plasma stability, human. It counts as in vitro ADME. The note with it: pH 7.4; human plasma, 2 μM, 37° C.; read-out: T1/2 (human).
Another series has as its target T1, human TLR7 (Homo sapiens, UniProt Q9NYK1).
T1 construct: host or cells: HEK293 reporter cell line
T1 sequence (Q9NYK1 27-1049): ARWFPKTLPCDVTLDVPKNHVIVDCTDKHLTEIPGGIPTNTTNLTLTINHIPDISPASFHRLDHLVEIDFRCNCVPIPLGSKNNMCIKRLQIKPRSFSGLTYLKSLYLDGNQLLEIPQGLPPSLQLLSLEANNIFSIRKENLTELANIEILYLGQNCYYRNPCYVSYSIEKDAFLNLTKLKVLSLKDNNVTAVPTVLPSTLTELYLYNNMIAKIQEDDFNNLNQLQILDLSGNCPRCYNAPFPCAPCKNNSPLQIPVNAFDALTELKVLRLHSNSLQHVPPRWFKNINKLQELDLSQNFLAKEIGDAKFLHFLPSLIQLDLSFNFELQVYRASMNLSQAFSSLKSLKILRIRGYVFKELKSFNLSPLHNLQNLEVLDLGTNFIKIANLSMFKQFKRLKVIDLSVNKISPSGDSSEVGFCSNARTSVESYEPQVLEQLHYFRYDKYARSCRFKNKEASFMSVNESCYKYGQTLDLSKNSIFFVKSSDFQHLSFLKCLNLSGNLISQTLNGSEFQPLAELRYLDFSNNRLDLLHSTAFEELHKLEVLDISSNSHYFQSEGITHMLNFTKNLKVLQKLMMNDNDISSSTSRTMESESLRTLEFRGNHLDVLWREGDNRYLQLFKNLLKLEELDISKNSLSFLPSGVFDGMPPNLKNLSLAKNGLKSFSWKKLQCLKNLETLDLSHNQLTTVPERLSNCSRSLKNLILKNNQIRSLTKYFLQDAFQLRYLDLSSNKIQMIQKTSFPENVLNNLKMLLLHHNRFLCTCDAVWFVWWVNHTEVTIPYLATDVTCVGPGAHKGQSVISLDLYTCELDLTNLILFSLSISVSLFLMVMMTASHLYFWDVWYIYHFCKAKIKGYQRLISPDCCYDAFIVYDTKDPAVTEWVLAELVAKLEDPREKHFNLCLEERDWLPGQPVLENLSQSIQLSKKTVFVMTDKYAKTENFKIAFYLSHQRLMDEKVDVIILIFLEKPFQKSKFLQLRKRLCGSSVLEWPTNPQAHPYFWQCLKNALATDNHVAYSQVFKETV
The series is described as follows: Human TLR7 receptor activation, HEK293 reporter cell line. The class given is cell-based. The settings on record: HEK293 reporter cells, 16 hours. As for the experimental part: Compounds were tested for their activity to activate human TLR7 and TLR8 receptors using HEK293 reporter cell lines engineered to express respective receptors in accordance to manufacturer's instructions (InvivoGen). […] Incubation was for 16 hours at 37° C. and […]. Absorption at 655 nm was read on […]. Data was fitted using PRISM.

As to `CCOCc1nc2c(NC(=O)OCCSSC(C)CCC(=O)NCCC(=O)N(C)CC(=O)N(C)CC(=O)N(C)CC(=O)N(C)CC(=O)N(C)CC(=O)N(C)CC(=O)N(C)CC(=O)N(C)CC(=O)N(C)CC(=O)N(C)CC(=O)N[C@@H](C)C(=O)N[C@H]3CSCc4cc5cc(c4)CSC[C@H](NC(=O)[C@@H](C)NC(=O)[C@H](Cc4cccc6ccccc46)NC(=O)[C@H](CCC(=O)O)NC(=O)[C@H](CC(N)=O)NC(=O)[C@@H](C)NC3=O)C(=O)N[C@@H](CCC(=O)O)C(=O)N[C@@H](CC(=O)O)C(=O)N[C@@H](Cc3ccccc3)C(=O)N[C@@H](Cc3ccc(O)cc3)C(=O)N[C@@H](CC(=O)O)C(=O)N[C@@H](C(C)(C)C)C(=O)N[C@H](C(N)=O)CSC5)nc3ccccc3c2n1CC(C)(C)O` (stereo partly shown) [I-8] ({X1-βAla}-[Sar][Sar][Sar][Sar][Sar][Sar][Sar][Sar][Sar][Sar]AC[dA]NE[1Nal][dA]CEDFYD[Tle]C-NH2; linker 12-18-25 via TBMB), the half-life at 2 μM in “Plasma stability, mouse” was less than 120 min; in “Plasma stability, rat” it was less than 120 min; in the series “Plasma stability, human”, 120 to 360 min. Further, on human TLR7, the “hTLR7 activation potency versus naked payload resiquimod” value is “considerably reduced potency or inactivity”.
